The source of these data is patent US20250340881A1, “PHARMACEUTICAL COMPOSITION FOR TREATING CANCER COMPRISING FOXM1 MUTANT OR FOXM1 SHRNA” (Industry-University Cooperation Foundation Hanyang …, priority 2022, published 2025).

Bounds are passed on as bounds.

In one experiment the test system is A549 lung cancer cells. Kind of experiment: Transwell migration assay of A549 cells expressing FoxM1 WT or point mutants. Particulars: for migration / motility of cancer cells (in words): Transwell migration assay, A549. The class given is cell-based. Here is the method: To examine the effects of FoxM1 WT, phosphorylation, and non-phosphorylated point mutants on the motility of cancer cells, the migration assay was performed in A549 lung cancer cells expressing mutant proteins.
Specifically, 5×10^4 cells of lung cancer cells A549 expressing each of WT, phosphorylation, and non-phosphorylated point mutant of FoxM1 were seeded in an 8.0 μm, 24 well insert, and the inserts were placed in a 24-well plate after medium with 10% fetal bovine serum (FBS) was dispensed in the 24-well plate. For the positive control, 0.5 ml of RPMI1640 (10% FBS) containing 5 ng/ml of TGF-β was used. After 72 hours from cell seeding, 500 μl of 4% paraformaldehyde was dispensed, washed three times with 1×PBS, and stained with 0.05% crystal violet solution for 5 minutes. After 5 minutes, the cells were washed five times with 1×PBS, and the staining intensity was measured using the Odyssey infrared imaging system.
Specifically, 5×10^4 cells of lung cancer cells A549 expressing control and FoxM1 WT were seeded in an 8.0 μm, 24 well insert, and the inserts were placed in a 24-well plate after medium with 10% fetal bovine serum (FBS) was dispensed in the 24-well plate. For the positive control, 0.5 ml of RPMI1640 (10% FBS) containing 5 ng/ml of TGF-β was added and used. After 72 hours from cell seeding, 500 μl of 4% paraformaldehyde was dispensed, washed three times with 1×PBS, and stained with 0.05% crystal violet solution for 5 minutes. After 5 minutes, the cells were washed five times with 1×PBS, and the staining intensity was measured using the Odyssey infrared imaging system.

The subject of a further experiment is A549 cancer cells. Kind of experiment: Tail vein injection metastatic cancer animal model with A549 cells expressing FoxM1 mutants. Particulars: for cancer metastasis to lung and tumorigenesis (tumorigenicity): A549 cells expressing the mutant injected into tail vein of mice; for degree of cancer cell proliferation by H&E and Ki67 staining: lung tissue of injected mice. The class given is in vivo, mice. Here is the method:
To observe the tumorigenic potential of cancer cells in animal models, the present inventors aimed to evaluate the tumorigenicity-promoting and -suppressing effects of cancer cells by using cancer cells expressing phosphorylation and non-phosphorylated point mutants of FoxM1 S25 residue.
Specifically, A549 cancer cells (2×10^6 cells) stably expressing FoxM1 protein containing point mutations were diluted in PBS and injected into the tail vein of mice. The mice were raised for 8 weeks, and then laparotomy was performed to observe cancer cell metastasis and tumorigenesis in organs.

Experiment [1] concerns A549 cells. Kind of experiment: Caspase-3 assay in A549 cells over-expressing FoxM1 point mutants. The class given is cell-based. Particulars: doxycycline 3 μg/ml 48 hours, control set to 1. The protocol:
Furthermore, to observe the degree of apoptosis of cancer cells in A549 cells expressing each of the phosphorylation and non-phosphorylated point mutants of FoxM1, a caspase-3 assay was performed to measure the activity of the caspase-3 enzyme (FIG. 5F). A549 cells expressing each protein containing the phosphorylation and non-phosphorylation point mutation of FoxM1 were administered with 3 μg/ml of doxycycline for 48 hours to induce over-expression of each mutant. The cells were lysed and reacted with the fluorescence substrate of caspase-3 (Ac-DEVD-AMC) for 1 hour, and then the fluorescence value (Ex. 380 nm/Emi. 430 nm) was measured using an electron spectrometer (SpectraMax M4 system). The measured fluorescence value indicated the activity of caspase-3, and the relative measurement value in each experimental group was calculated and depicted by a graph, when the measured fluorescence value of the control group set to 1.

Experiment [2] concerns A549 cells. Put plainly: MTT viability of A549 cells co-cultured with THP-1 cells. Particulars: ratios 1:0, 1:2, 1:4, 1:6, 48 hours. The experiment is classed as cell-based. Here is the method: The cell viability was measured to investigate whether the FoxM1 phosphorylation and non-phosphorylation point mutations affected the viability of lung cancer cells, after co-culturing the lung cancer cells (A549) expressing the FoxM1 phosphorylation and non-phosphorylated point mutants and monocyte THP-1 cells. A549 cells (4×10^4 cells/mL) and THP-1 cells were co-cultured at ratios of 1:0, 1:2, 1:4, and 1:6 for 48 hours, and after co-culturing for 48 h and washing off the THP-1 cells, the viability of A549 cells attached to the bottom was measured by an MTT assay.

In experiment [3] the test system is A549 cells. Kind of experiment: Viability of A549 cells co-cultured with Jurkat cells. The experiment is classed as cell-based. From the text:
In addition, through the co-culture of the A549 cells expressing the FoxM1 S25E phosphorylated point mutant (A549^S25E) and Jurkat cells as T cells, it was tried to examine the effects on cancer immunity of T cells (FIG. 7D).

The next experiment relates to Jurkat cells. Put plainly: CD25 and CD29 expression (qRT-PCR) in Jurkat cells co-cultured with A549 cells. Particulars: co-culture 48 h. The class given is cell-based. Here is the method: (§1) To investigate the polarization into tumor-infiltrating T lymphocytes (TILs) by A549^S25E cells, the expression levels of CD25 and CD29, which were expressed in TILs, were analyzed by qRT-PCR after co-culturing Jurkat cells (1.2×10^5 cells) and A549^S25E cells (4×10^4 cells) for 48 h. As a result, it was observed that there was a significant increase of 3 folds or more, in the expression of CD25 and CD29 in Jurkat cells co-cultured with A549^S25E cells. […] Additionally, to investigate the inhibitory effect of A549^S25A cells on tumor immune evasion by TAMs or TILs in the tumor microenvironment, the viability change was examined by an MTT assay analysis after co-culturing A549 cells expressing the FoxM1 phosphorylation or non-phosphorylated point mutant, THP-1 cells, and Jurkat cells at a ratio of 1:0:0, 1:6:0, 1:0:6, and 1:6:6 for 48 h. […] That is, there was the inhibitory effect of the cells expressing non-phosphorylated point mutant on the tumor immune evasion by TAMs or TILs in the tumor microenvironment. Therefore, the present invention provided the inhibitory effects of the non-phosphorylated point mutant of FoxM1 on tumor immune evasion.
On the technique in general: Real-time PCR tracks product formation cycle by cycle.

Experiment [4] deals with A549 cells. Kind of experiment: MTT viability of A549 cells co-cultured with THP-1 cells and Jurkat cells. The class given is cell-based. Particulars: ratios 1:0:0, 1:6:0, 1:0:6, 1:6:6, 48 h. Here is the method:
as §1

B1: S25E: FoxM1 phosphorylated point mutant of the S25 residue, expressed by lentivirus in A549 cells (protein, listed as Homo sapiens)
chain: MKTSPRRPLILKRRRLPLPVQNAPEETSEEEPKRSPAQQESNQAEASKEVAESNSCKFPAGIKIINHPTMPNTQVVAIPNNANIHSIITALTAKGKESGSSGPNKFILISCGGAPTQPPGLRPQTQTSYDAKRTEVTLETLGPKPAARDVNLPRPPGALCEQKRETCDGEAAGCTINNSLSNIQWLRKMSSDGLGSRSIKQEMEEKENCHLEQRQVKVEEPSRPSASWQNSVSERPPYSYMAMIQFAINSTERKRMTLKDIYTWIEDHFPYFKHIAKPGWKNSIRHNLSLHDMFVRETSANGKVSFWTIHPSANRYLTLDQVFKQQQKRPNPELRRNMTIKTELPLGARRKMKPLLPRVSSYLVPIQFPVNQSLVLQPSVKVPLPLAASLMSSELARHSKRVRIAPKVLLAEEGIAPLSSAGPGKEEKLLFGEGFSPLLPVQTIKEEEIQPGEEMPHLARPIKVESPPLEEWPSPAPSFKEESSHSWEDSSQSPTPRPKKSYSGLRSPTRCVSEMLVIQHRERRERSRSRRKQHLLPPCVDEPELLFSEGPSTSRWAAELPFPADSSDPASQLSYSQEVGGPFKTPIKETLPISSTPSKSVLPRTPESWRLTPPAKVGGLDFSPVQTSQGASDPLPDPLGLMDLSTTPLQSAPPLESPQRLLSSEPLDLISVPFGNSSPSDIDVPKPGSPEPQVSGLAANRSLTEGLVLDTMNDSLSKILLDISFPGLDEDPLGPDNINWSQFIPELQ
As for B1, the “migration / motility of cancer cells (in words)” value in the experiment with A549 lung cancer cells is given as “promoted the motility of lung cancer cells”. In the experiment with A549 lung cancer cells (Transwell, 72 hours, control set to 1, TGF-β 5 ng/ml positive control), the “cancer cell migration (stained intensity), increase compared to the control group” value was “approximately 6 fold”. Besides, the “staining intensity value compared to the control group” value in the experiment on A549 lung cancer cells (migration assay, 72 hours, control set to 1) is on record as “up to 6 times”. Further, the “cancer metastasis to lung and tumorigenesis (tumorigenicity)” value is recorded as “significantly higher” in the experiment with A549 cancer cells and “highest tumorigenicity” in the experiment with A549 cancer cells (listed as S325E). In the experiment with A549 cancer cells, the “degree of cancer cell proliferation by H&E and Ki67 staining” value was “high”. The “activity of caspase-3 (apoptosis)” value in the experiment on A549 cells [1] is recorded as “lowest activity of caspase-3”. Further, the “viability of A549 cells co-cultured with THP-1 cells” value in the experiment with A549 cells [2] is “gradually increased”. The “viability of A549 cells co-cultured with Jurkat cells” value was 1.2 folds with A549 cells [3] (ratio 1:2, 48 h); 1.3 folds in the experiment on A549 cells [3] (ratio 1:4, 48 h); 1.5 folds in the experiment with A549 cells [3] (ratio 1:6, 48 h). Further, the “expression of CD25 and CD29 in Jurkat cells” value in the experiment with Jurkat cells is reported as ≥ 3 folds. In addition, the “viability change of A549 cells co-cultured with THP-1 and Jurkat cells” value with A549 cells [4] is recorded as “significantly increased”.

B2: S25A: FoxM1 protein with Ser25 substituted with alanine, non-phosphorylated point mutant, expressed by lentivirus in A549 cells (protein)
chain: MKTSPRRPLILKRRRLPLPVQNAPAETSEEEPKRSPAQQESNQAEASKEVAESNSCKFPAGIKIINHPTMPNTQVVAIPNNANIHSIITALTAKGKESGSSGPNKFILISCGGAPTQPPGLRPQTQTSYDAKRTEVTLETLGPKPAARDVNLPRPPGALCEQKRETCDGEAAGCTINNSLSNIQWLRKMSSDGLGSRSIKQEMEEKENCHLEQRQVKVEEPSRPSASWQNSVSERPPYSYMAMIQFAINSTERKRMTLKDIYTWIEDHFPYFKHIAKPGWKNSIRHNLSLHDMFVRETSANGKVSFWTIHPSANRYLTLDQVFKQQQKRPNPELRRNMTIKTELPLGARRKMKPLLPRVSSYLVPIQFPVNQSLVLQPSVKVPLPLAASLMSSELARHSKRVRIAPKVLLAEEGIAPLSSAGPGKEEKLLFGEGFSPLLPVQTIKEEEIQPGEEMPHLARPIKVESPPLEEWPSPAPSFKEESSHSWEDSSQSPTPRPKKSYSGLRSPTRCVSEMLVIQHRERRERSRSRRKQHLLPPCVDEPELLFSEGPSTSRWAAELPFPADSSDPASQLSYSQEVGGPFKTPIKETLPISSTPSKSVLPRTPESWRLTPPAKVGGLDFSPVQTSQGASDPLPDPLGLMDLSTTPLQSAPPLESPQRLLSSEPLDLISVPFGNSSPSDIDVPKPGSPEPQVSGLAANRSLTEGLVLDTMNDSLSKILLDISFPGLDEDPLGPDNINWSQFIPELQ
modifications: left off: a dimerising Fc or GST
notes: FoxM1 protein with Ser25 substituted with alanine, non-phosphorylated point mutant, expressed by lentivirus in A549 cells
For B2, the figures for the “migration / motility of cancer cells (in words)” value with A549 lung cancer cells and with A549 lung cancer cells (listed as S25 non-phosphorylated point mutant of FoxM1) were “reduced” and “effectively suppressed the motility of lung cancer cells”, respectively. In addition, the “cancer metastasis to lung and tumorigenesis (tumorigenicity)” value in the experiment on A549 cancer cells is “more effective in reducing the metastasis and suppressing the tumorigenic potential”; in the experiment on A549 cancer cells (listed as FoxM1 protein containing the non-phosphorylation point mutations), “relatively low”; in the experiment on A549 cancer cells (listed as non-phosphorylated point mutant of FoxM1) it was “no tumors were formed”. Also, the “degree of cancer cell proliferation by H&E and Ki67 staining” value in the experiment with A549 cancer cells is listed as “significantly low”. In addition, the “activity of caspase-3 (apoptosis)” value in the experiment with A549 cells [1] was “highest activity of caspase-3”. The “viability of A549 cells co-cultured with THP-1 cells” value in the experiment on A549 cells [2] is reported as “not changed compared to the control group”. In addition, the “viability of A549 cells co-cultured with Jurkat cells (in words)” value in the experiment on A549 cells [3] (compared to WT or phosphorylation mutant, 48 h) is reported as “significantly decreased”. Further, in the experiment with Jurkat cells, the “expression of CD25 and CD29 in Jurkat cells (in words)” value is “significantly inhibiting effect”. Besides, the “viability change of A549 cells co-cultured with THP-1 and Jurkat cells” value in the experiment with A549 cells [4] is on record as “reduced”.
